The target of test [1] is nuclear egress complex (NEC), heterodimer of pUL31 and pUL34 (herpes simplex virus 1, strain F) (UniProt P10215). Description: cryo-electron tomography; tomograms of nuclear sacs from US3-null-infected Vero cells; 188 ring subtomograms, rotational symmetry by ROTASTAT, subtomogram averaging.
In test [2] the target is triplex of the HSV-1 capsid (herpes simplex virus 1, strain F). In words: cryo-EM structure; icosahedral reconstruction of isolated PEVs (123 particles), projection matching from a starting map of in vitro-matured B-capsids that lack CCSC and pUL35; ~2 nm around the capsid shell, ~3.5 nm for the whole particle.

What is called stoichiometry N is a count of units in the complex or per binding partner. Substance “nuclear egress complex (NEC), heterodimer of pUL31 and pUL34 (from UniProt P10215 1-306; P10218 1-275)” registered a stoichiometry N in test [1] of 7.
The substance “heterodimeric pUL17/pUL25 complex, C-capsid-specific complex (CCSC) (from UniProt P10201 1-703; P10209 1-580)” came in with an occupancy in test [2] of 100%.

For the origin of these results see PMC5472190.
